# Results reported in patent US11225644B2, “Cell culture method, cell aggregates, cell aggregation control agent, and medium” (THE UNIVERSITY OF TOKYO, priority 2015, dated 2022).
# Assays:
# Format in all cases: cell-based, human
# hiPS cells (TkDN4-M) [1] = assay: Measurement of glucose consumption, Essential 8 culture (Example 3); conditions: Examples 3-1 and 3-2 (50, 100 μg/ml) vs Comparative Example 3-1, Essential 8, FIG. 8
# Description: (§1) During the whole culture period, 300 μL of the culture liquid was collected upon replacement of the medium, and the glucose concentration was analyzed using an enzyme-electrode type bioanalyzer (YS12950) to calculate changes in the glucose consumption.
# (§2) To a 12-well plate subjected to low-cell-adhesion treatment, 1 mL of Essential 8® was added, and hiPS cells (TkDN4-M, Stem Cell Bank, The University of Tokyo) (2×10^5 cells/ml) provided in advance and, as a substance that inhibits a cell adhesion molecule(s) of the hiPS cells, E-cadherin-Fc (50 μg/ml) were added at the same time, followed by performing rotation culture at a speed of 100 rpm for 5 days. On Day 2 of the culture and thereafter (from 48 hours after the beginning of the culture), medium replacement was carried out every day with a medium to which E-cadherin-Fc was not added.
# hiPS cells (TkDN4-M) [2] = assay: Observation of cell aggregates after 1 day of rotation culture (Example 2); conditions: 10 μg/ml, FIG. 5; for uniformity of aggregate diameters compared to Comparative Example 2-1: mTeSR1, rotation culture 90 rpm for 1 day
# Description: To a 12-well plate subjected to low-cell-adhesion treatment, 1 mL of mTeSR®1 was added, and hiPS cells (TkDN4-M, Stem Cell Bank, The University of Tokyo) ([…] cells/ml) provided in advance and, as a substance that inhibits a cell adhesion molecule(s) of the hiPS cells, recombinant E-cadherin (hRP-0339, manufactured by LD Biopharma) (10 μg/ml) were added at the same time, followed by performing rotation culture at a speed of 90 rpm for 1 day.
# Aggregates were obtained in the same manner as in Example 2-1 except that a neutralizing antibody against E-cadherin (E-cadherin antibody MAB3199Z, manufactured by Millipore) ([…]) was used as the substance that inhibits a cell adhesion molecule(s) of the hiPS cells in Example 2-2.
# Aggregates were obtained in the same manner as in Example 2-1 except that E-cadherin-Fc (10 μg/ml) was used as the substance that inhibits a cell adhesion molecule(s) of the hiPS cells in Example 2-3.
# Morphology of cell aggregates in Examples 2-1 to 2-3 and Comparative Example 2-1 was observed using a phase-contrast microscope (product name. DM IRB; manufactured by LEICA).
# hiPS cells (TkDN4-M) [3] = assay: Measurement of live cell number after culture, mTeSR1 (Example 1); conditions: Day 5 of the culture
# Description: (§3) […] The sizes of the aggregates 48 hours after the E-cadherin-Fc treatment were within the range of 300 to 700 μm. Subsequently, medium replacement was carried out, and culture was carried out for three days under the same conditions as described above except that E-cadherin-Fc was not added, to obtain aggregates. The sizes of the aggregates were within the range of 500 to 1000 μm.
# (§4) After completion of the culture, the cells were dispersed into single cells using TrypLE® select, and the number of live cells was counted using trypan blue (manufactured by Life Technologies) and an eosinophil counter (manufactured by Tatai).
# hiPS cells (TkDN4-M) [4] = assay: Measurement of glucose consumption, mTeSR1 culture (Example 1); conditions: Day 5 of the culture
# Description: as §3, §1
# hiPS cells (TkDN4-M) [5] = assay: Diameters of cell aggregates in rotation suspension culture in mTeSR1 (Example 1)
# Description: As pluripotent stem cells, hiPS cells (TkDN4-M, Stem Cell Bank, The University of Tokyo) were used. These cells were plated on the above culture plate at a density of 100,000 to 400,000 cells/well, and cultured for four days. The culture was carried out using, as a culture medium, 2 mL/well of mTeSR®1 (manufactured by StemCell Technologies). During the culture, medium replacement was carried out every day except for the day after the plating.
# For detachment and collection of cells, TrypLE® select (manufactured by Life Technologies), which is a trypsin-like enzyme, was used. After removal of the culture liquid, TrypLE® select was added to the wells at 1 mL/well, and the plate was incubated at 37° C. for 2 to 5 minutes. Thereafter, TrypLE® select was removed, and mTeSR®1 supplemented with 10 μM Y-27632, which is a ROCK inhibitor, was added to the wells at 2 mL/well, followed by pipetting using a 1000-μL micropipette to detach the cells. The collected cell suspension was passed through a 40-μm cell strainer (BD) to collect the cells as single cells and/or microaggregates, to thereby obtain cells to be applied to suspension culture.
# In the following Examples and Comparative Examples, morphology and sizes of cell aggregates during the culture period were observed and measured using a phase-contrast microscope (product name, DM IRB; manufactured by LEICA). […]
# hiPS cells (TkDN4-M) [6] = assay: Observation of cell aggregates in rotation suspension culture in Essential 8 (Example 3); conditions: Day 5 of the culture, Essential 8, E-cadherin-Fc 50 or 100 μg/ml for first 48 hours, 100 rpm
# Description: as §2
# Aggregates were obtained in the same manner as in […] except that the concentration of E-cadherin-Fc in Example 3-1 was 100 μg/ml.
# Morphology of cell aggregates in Examples 3-1 and 3-2, and Comparative Example 3-1 on Day 2 and Day 5 of the culture was observed using a phase-contrast microscope (product name, DM IRB; manufactured by LEICA). From the results shown in FIGS. 6 and 7, it can be seen that the size of the aggregates can be controlled also in cases where Essential 8® is used as the medium. On Day 5 of the culture, in the cases where E-cadherin-Fc was added, the size of the aggregates was larger than that on Day 2 of the culture, and the diameter of the aggregates was controlled at about 500 μm.
# hiPS cells (TkDN4-M) [7] = assay: Measurement of number of cells, Essential 8 culture (Example 3); conditions: Examples 3-1 and 3-2 (50, 100 μg/ml) vs Comparative Example 3-1, Essential 8, after 5 days, FIG. 9
# Description: as §4, §2
Molecule,glucose consumption (hiPS cells (TkDN4-M) [1]),uniformity of aggregate diameters compared to Comparative Example 2-1 (hiPS cells (TkDN4-M) [2]),aggregates compared to recombinant E-cadherin or neutralizing antibody against E-cadherin (hiPS cells (TkDN4-M) [2]; rotation culture for 1 day),"number of cells compared to Comparative Example 1-1 (hiPS cells (TkDN4-M) [3]; Example 1-2, 10 μg/ml)","number of cells compared to Comparative Example 1-1 (hiPS cells (TkDN4-M) [3]; Example 1-3, 20 μg/ml)","number of cells compared to Comparative Example 1-1 (hiPS cells (TkDN4-M) [3]; Example 1-4, 50 μg/ml)","number of cells compared to Comparative Example 1-1 (hiPS cells (TkDN4-M) [3]; Example 1-5, 100 μg/ml)","glucose consumption compared to Comparative Example 1-1 (hiPS cells (TkDN4-M) [4]; Example 1-1, 5 μg/ml)","glucose consumption compared to Comparative Example 1-1 (hiPS cells (TkDN4-M) [4]; Example 1-2, 10 μg/ml) [times]","glucose consumption compared to Comparative Example 1-1 (hiPS cells (TkDN4-M) [4]; Example 1-3, 20 μg/ml) [times]","glucose consumption compared to Comparative Example 1-1 (hiPS cells (TkDN4-M) [4]; Example 1-4, 50 μg/ml) [times]","glucose consumption compared to Comparative Example 1-1 (hiPS cells (TkDN4-M) [4]; Example 1-5, 100 μg/ml) [times]","morphology of cell aggregates compared to Comparative Example 1-1 (hiPS cells (TkDN4-M) [5]; 5, 10, 20, 50 and 100 μg/ml, Day 2 of the culture, FIG. 2)","suppression of excessive aggregation and formation of uniform aggregates (hiPS cells (TkDN4-M) [5]; concentration within 10 to 50 μg/ml, Day 2, simple rotation culture)",diameter of the aggregates (hiPS cells (TkDN4-M) [6]),number of cells (hiPS cells (TkDN4-M) [7])
"E-cadherin-Fc: fusion protein of mouse E-cadherin extracellular domain and mutated IgG1-Fc domain (T252M/T254S) (protein, left off: a dimerising Fc or GST) DWVIPPISCPENEKGEFPKNLVQIKSNRDKETKVFYSITGQGADKPPVGVFIIERETGWLKVTQPLDREAIAKYILYSHAVSSNGEAVEDPMEIVITVTDQNDNRPEFTQPVFEGFVAEGAVPGTSVMKVSATDADDDVNTYNAAIAYTIVSQDPELPHKNMFTVNRDTGVISVLTSGLDRESYPTYTLVVQAADLQGEGLSTTAKAVITVKDINDNAPVFNPSTYQGQVPENEVNARIATLKVTDDDAPNTPAWKAVYTVVNDPDQQFVVVTDPTTNDGILKTAKGLDFEAKQQYILHVRVENEEPFEGSLVPSTATVTVDVVDVNEAPIFMPAERRVEVPEDFGVGQEITSYTAREPDTFMDQKITYRIWRDTANWLEINPETGAIFTRAEMDREDAEHVKNSTYVALIIATDDGSPIATGTGTLLLVLLDVNDNAPIPEPRNMQFCQRNPQPHIITILDPDLPPNTSPFTAELTHGASVNWTIEYNDAAQESLILQPRKDLEIGEYKIHLKLADNQNKDQVTTLDVHVCDCEGTVNNCMKAGIVAAGLQV",excellent effect,more uniformly controlled diameters,larger aggregates having more uniform shapes,about 1.8 times,about 2.5 times,about 3 times,about 2.3 times,about twice,2,2.5,2.5,2,better-controlled sizes,effective,about 500 μm,excellent effect
"recombinant E-cadherin: recombinant E-cadherin (hRP-0339, manufactured by LD Biopharma) (protein, UniProt P12830 155-882, looked up) Cadherin-1: DWVIPPISCPENEKGPFPKNLVQIKSNKDKEGKVFYSITGQGADTPPVGVFIIERETGWLKVTEPLDRERIATYTLFSHAVSSNGNAVEDPMEILITVTDQNDNKPEFTQEVFKGSVMEGALPGTSVMEVTATDADDDVNTYNAAIAYTILSQDPELPDKNMFTINRNTGVISVVTTGLDRESFPTYTLVVQAADLQGEGLSTTATAVITVTDTNDNPPIFNPTTYKGQVPENEANVVITTLKVTDADAPNTPAWEAVYTILNDDGGQFVVTTNPVNNDGILKTAKGLDFEAKQQYILHVAVTNVVPFEVSLTTSTATVTVDVLDVNEAPIFVPPEKRVEVSEDFGVGQEITSYTAQEPDTFMEQKITYRIWRDTANWLEINPDTGAISTRAELDREDFEHVKNSTYTALIIATDNGSPVATGTGTLLLILSDVNDNAPIPEPRTIFFCERNPKPQVINIIDADLPPNTSPFTAELTHGASANWTIQYNDPTQESIILKPKMALEVGDYKINLKLMDNQNKDQVTTLEVSVCDCEGAAGVCRKAQPVEAGLQIPAILGILGGILALLILILLLLLFLRRRAVVKEPLLPPEDDTRDNVYYYDEEGGGEEDQDFDLSQLHRGLDARPEVTRNDVAPTLMSVPRYLPRPANPDEIGNFIDENLKAADTDPTAPPYDSLLVFDYEGSGSEAASLSSLNSSESDKDQDYDYLNEWGNRFKKLADMYGGGEDD",,more uniformly controlled diameters,,,,,,,,,,,,,,
